What is called IC50 is the concentration at which inhibition is half-maximal. A lower IC50 goes with inhibition by little substance.

17 molecules from patent US20040214995A1 (published 2004) can be followed below.

One assay deals with T1, HLA-A2.1 (heavy chain with human beta 2-microglobulin) (human).
In the case of VLYRYGSFSV [gp100 peptide G10-5 (VLYRYGSFSV)], the IC50 was determined as 13 nM and the “Ratio to Standard” value is 0.38.

Consider LLDGTATLRL [gp100 peptide G10-4 (LLDGTATLRL)], for which the IC50 came out at 483 nM and the “Ratio to Standard” value was found to be 0.01.

For a further assay, the target named is T1, HLA-A2.1 (heavy chain with human beta …). This is another data set of the same source.
For ATWGQYWQV [G9-154-1A], half-maximal inhibition (IC50) required 5.2 nM. In other words, the single-digit nanomolar range.

For the molecule KIWGQYWQV [G9-154-2I], the IC50 is 3 nM. This IC50 lies about 1.7-fold lower than the previous one.

KTFGQYWQV [G9-154-3F] came in with a half-maximal inhibitory concentration (IC50) of 21 nM. This IC50 lies about 7-fold higher than the previous one.

Turning to KTYGQYWQV [G9-154-3Y], the IC50 is 30 nM. The IC50 values of the last two molecules are within 1.5-fold of each other.

KLWGQYWQV [G9-154-2L] registered an IC50 of 2 nM. This IC50 lies about 15-fold lower than the previous one.

As for KMWGQYWQV [G9-154-2M], the IC50 came to 6.5 nM.

With YTWGQYWQV [G9-154-1Y], the half-inhibitory concentration (IC50) was found to be 2.5 nM.

YLWGQYWQV [G9-154-1Y2L] had an IC50 of 1.7 nM.

Molecule WLWGQYWQV [G9-154-1W2L] had an IC50 of 2.8 nM.

The molecule LLWGQYWQV [G9-154-1L2L] showed a 50% inhibitory concentration (IC50) of 1.6 nM.

The molecule WTWGQYWQV [G9-154-1W] displayed an IC50 of 60 nM.

Molecule ALWGQYWQV [G9-154-1A2L] came in with a half-maximal inhibitory concentration (IC50) of 2.3 nM.

LTWGQYWQV [G9-154-1L] registered an IC50 of 3.4 nM. The IC50 values of the last two molecules are within 1.5-fold of each other.

As for FTWGQYWQV [G9-154-1F], the IC50 was determined as 1.6 nM.

FLWGQYWQV [G9-154-1F2L] returned an IC50 of 2.6 nM.
